The values below are quoted from earlier work in paper PMC8441013.

The data set deals with neuromedin B (Homo sapiens) (UniProt P08949).
UniProt P08949, sequence (P08949 whole entry, looked up): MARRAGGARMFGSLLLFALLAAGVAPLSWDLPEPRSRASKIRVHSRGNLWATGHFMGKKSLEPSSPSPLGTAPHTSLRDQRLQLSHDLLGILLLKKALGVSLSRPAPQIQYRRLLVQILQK

The term Kd denotes the free concentration of one partner at which half of the binding sites on the other are occupied at equilibrium, for simple one-to-one binding. Consider NMBR (from UniProt P28336), for which the Kd is 5 nM.
